Source: the supplement of paper PMC7877785
± gives the uncertainty stated by the source.

Assay: self-splicing fitness, log relative to wild type (ln ratio); higher = more splicing; Tetrahymena group I intron in knt gene, E. coli kanamycin selection, DiMSum; sequences stand for … in CUCUCU…GGAGGGAAAAGUUAUCAGGCAUGCACCUGGUAGCUAGUCUUUAAACCAAUAGAUUGCAUCGGUUUAAAAGGCAAGACCGUCAAAUUGCGGGAAAGGGGUCAACAGCCGUUCAGUACCAAGUCUCAGGGGAAACUUUGAGAUGGCCUUGCAAAGGGUAUGGUAAUAAGCUGACGGACAUGGUCCUAACCACGCAGCCAAGUCCUAAGUCAACAGAUCUUCUGUUGAUAUGGAUGCAGUUCACAGACUAAAUGUCGGUCGGGGAAGAUGUAUUCUUCUCAUAAGAUAUAGUCGGACCUCUCCUUAAUGGGAGCUAGCGGAUGAAGUGAUGCAACACUGGAGCCGCUGGGAACUAAUUUGUAUGCGAAAGUAUAUUGAUUAGUUUUGGAGUACUCGUGGUCG
Procedure, shortened: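 A randomised library covering all eight P1ex-region intron nucleotides was built with the intron in the knt kanamycin-resistance gene on pET-22b(+) and held in E. coli BL21(DE3). Cells were grown overnight at 37°C or 30°C on LB agar, with or without 25 μg/mL kanamycin, plus 100 μg/mL carbenicillin, 50 μM IPTG and 0.2% rhamnose, and pooled colonies were amplicon-sequenced on an Illumina HiSeq 2500. DiMSum fitness is the error-weighted combination of wild-type-normalised replicate fold changes, kanamycin versus none.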

| Sequence | self-splicing fitness (ln) (30 °C) | self-splicing fitness (ln) (37 °C) |
| --- | --- | --- |
| AAAUAGCAAUAUUACGAGAU | -2.1 ± 0.16 | -1.47 ± 0.21 |
| AAAUAGCAAUAUUACGAGGG | -3.73 ± 0.19 | -3.61 ± 0.22 |
| AAAUAGCAAUAUUACGAGGU | -2.99 ± 0.26 | -1.28 ± 0.19 |
| AAAUAGCAAUAUUACGAUCC | -0.358 ± 0.14 | -0.695 ± 0.17 |
| AAAUAGCAAUAUUACGAUCG | -0.864 ± 0.091 | -0.18 ± 0.11 |
| AAAUAGCAAUAUUACGAUGA | -0.773 ± 0.096 | -0.0131 ± 0.11 |
| AAAUAGCAAUAUUACGCCCU | 0.528 ± 0.16 | 0.336 ± 0.21 |
| AAAUAGCAAUAUUACGCGCC | -0.57 ± 0.13 | -0.337 ± 0.15 |
| AAAUAGCAAUAUUACGCUAU | -2.9 ± 0.18 | -2.22 ± 0.34 |
| AAAUAGCAAUAUUACGCUUU | -2.63 ± 0.15 | -1.09 ± 0.12 |
| AAAUAGCAAUAUUACGGACA | -1.08 ± 0.12 | -0.512 ± 0.13 |
| AAAUAGCAAUAUUACGGCUA | -0.705 ± 0.12 | -0.0895 ± 0.13 |
| AAAUAGCAAUAUUACGGGCA | -1.22 ± 0.11 | -0.312 ± 0.14 |
| AAAUAGCAAUAUUACGGGGG | -2.94 ± 0.36 | -2.11 ± 0.31 |
| AAAUAGCAAUAUUACGGGUC | -3.56 ± 0.17 | -3.1 ± 0.24 |
| AAAUAGCAAUAUUACGGGUU | -1.92 ± 0.14 | -0.924 ± 0.2 |
| AAAUAGCAAUAUUACGGUAU | -1.69 ± 0.1 | -0.496 ± 0.12 |
| AAAUAGCAAUAUUACGGUCU | 0.108 ± 0.076 | -0.388 ± 0.084 |
| AAAUAGCAAUAUUACGUAAC | -2.1 ± 0.2 | -0.398 ± 0.2 |
| AAAUAGCAAUAUUACGUCGA | -1.78 ± 0.078 | -0.255 ± 0.076 |
| AAAUAGCAAUAUUACGUUAC | -3.44 ± 0.22 | -2.77 ± 0.27 |
| AACAAGCAAUAUUACGAAAG | -2.14 ± 0.14 | -2.73 ± 0.22 |
| AACAAGCAAUAUUACGAAUC | -3.22 ± 0.17 | -2.24 ± 0.13 |
| AACAAGCAAUAUUACGACAC | -1.66 ± 0.085 | -0.431 ± 0.097 |

| Sequence | self-splicing fitness (ln) (30 °C) | self-splicing fitness (ln) (37 °C) |
| --- | --- | --- |
| AACAAGCAAUAUUACGACCA | -0.617 ± 0.086 | -0.382 ± 0.12 |
| AACAAGCAAUAUUACGAGCU | -0.919 ± 0.056 | -0.357 ± 0.073 |
| AACAAGCAAUAUUACGAUUU | 0.129 ± 0.056 | 0.672 ± 0.077 |
| AACAAGCAAUAUUACGCGAA | -1.78 ± 0.073 | -0.546 ± 0.084 |
| AACAAGCAAUAUUACGCUAC |  | -3.21 ± 0.4 |
| AACAAGCAAUAUUACGCUCA | -0.608 ± 0.054 | -0.27 ± 0.071 |
| AACAAGCAAUAUUACGGCGU | -0.173 ± 0.063 | 0.163 ± 0.071 |
| AACAAGCAAUAUUACGGGGA | -3.21 ± 0.14 | -0.987 ± 0.087 |
| AACAAGCAAUAUUACGGUCU | -0.114 ± 0.037 | 0.456 ± 0.054 |
| AACAAGCAAUAUUACGUAUU | -1.77 ± 0.079 | -0.983 ± 0.092 |
| AACAAGCAAUAUUACGUCGU | -2.18 ± 0.068 | -0.677 ± 0.067 |
| AACAAGCAAUAUUACGUUAC | -3.54 ± 0.11 | -3.01 ± 0.18 |
| AACCAGCAAUAUUACGAACC | -0.246 ± 0.13 | 0.00425 ± 0.19 |
| AACCAGCAAUAUUACGACGU | -0.111 ± 0.046 | 0.409 ± 0.06 |
| AACCAGCAAUAUUACGAGAA | -1.71 ± 0.14 | -1.02 ± 0.13 |
| AACCAGCAAUAUUACGCAAG | -2.54 ± 0.1 | -1 ± 0.1 |
| AACCAGCAAUAUUACGCACA | -0.335 ± 0.054 | 0.326 ± 0.072 |
| AACCAGCAAUAUUACGCCUG | -1.8 ± 0.066 | -0.745 ± 0.087 |
| AACCAGCAAUAUUACGCGAA | -1.11 ± 0.06 | -0.99 ± 0.076 |
| AACCAGCAAUAUUACGCGCG | -0.385 ± 0.082 | 0.256 ± 0.11 |
| AACCAGCAAUAUUACGCUAA | -1.36 ± 0.068 | -0.61 ± 0.07 |
| AACCAGCAAUAUUACGCUAC | -2.63 ± 0.14 | -2.05 ± 0.13 |
| AACCAGCAAUAUUACGCUAU | -2.11 ± 0.094 | -0.398 ± 0.093 |
| AACCAGCAAUAUUACGGCAC | -0.615 ± 0.055 | -0.257 ± 0.079 |

| Sequence | self-splicing fitness (ln) (30 °C) | self-splicing fitness (ln) (37 °C) |
| --- | --- | --- |
| AACCAGCAAUAUUACGGGGU | -3.73 ± 0.14 | -2.88 ± 0.16 |
| AACCAGCAAUAUUACGGGUU | -2.89 ± 0.078 | -3.19 ± 0.13 |
| AACCAGCAAUAUUACGGUCG | -0.366 ± 0.049 | 0.214 ± 0.07 |
| AACCAGCAAUAUUACGUAAA | -1.13 ± 0.076 | -0.76 ± 0.084 |
| AACCAGCAAUAUUACGUCAC | -3.92 ± 0.13 | -2.66 ± 0.13 |
| AACCAGCAAUAUUACGUGCU | -3.52 ± 0.16 | -1.94 ± 0.15 |
| AACCAGCAAUAUUACGUUAC | -2.93 ± 0.14 | -2.52 ± 0.17 |
| AACGAGCAAUAUUACGACCA | -2.23 ± 0.18 | -1.53 ± 0.19 |
| AACGAGCAAUAUUACGACGA | -2.08 ± 0.17 | -0.282 ± 0.14 |
| AACGAGCAAUAUUACGAGGG | -3.03 ± 0.36 | -2.35 ± 0.29 |
| AACGAGCAAUAUUACGCACU | -1.23 ± 0.11 | -0.611 ± 0.11 |
| AACGAGCAAUAUUACGCCAU | -2.91 ± 0.27 | -1.52 ± 0.27 |
| AACGAGCAAUAUUACGCCUG | -3.77 ± 0.32 |  |
| AACGAGCAAUAUUACGCGGG | -3.64 ± 0.42 | -2.32 ± 0.22 |
| AACGAGCAAUAUUACGCUCA | -1.83 ± 0.12 | -0.666 ± 0.13 |
| AACGAGCAAUAUUACGCUUC | -3.1 ± 0.25 | -1.7 ± 0.3 |
| AACGAGCAAUAUUACGCUUU | -3.9 ± 0.17 | -2.31 ± 0.14 |
| AACGAGCAAUAUUACGGACG | -2.19 ± 0.2 | -1.05 ± 0.23 |
| AACGAGCAAUAUUACGGACU | -1.88 ± 0.13 | -0.603 ± 0.21 |
| AACGAGCAAUAUUACGGGCA | -2.92 ± 0.24 | -2.38 ± 0.24 |
| AACGAGCAAUAUUACGGGCG | -3.07 ± 0.15 | -1.11 ± 0.19 |
| AACGAGCAAUAUUACGGGUG | -3.4 ± 0.17 | -2.34 ± 0.2 |
| AACGAGCAAUAUUACGGUCU | -2.03 ± 0.093 | -0.898 ± 0.1 |
| AACGAGCAAUAUUACGUCUG | -3.17 ± 0.2 | -1.63 ± 0.16 |

| Sequence | self-splicing fitness (ln) (30 °C) | self-splicing fitness (ln) (37 °C) |
| --- | --- | --- |
| AACGAGCAAUAUUACGUGAG | -3.58 ± 0.17 | -0.98 ± 0.13 |
| AACGAGCAAUAUUACGUGGC | -3.85 ± 0.3 | -2.94 ± 0.27 |
| AACGAGCAAUAUUACGUUGU | -3.8 ± 0.098 | -3.3 ± 0.13 |
| AACUAGCAAUAUUACGAAGA | -2.62 ± 0.14 | -1.05 ± 0.12 |
| AACUAGCAAUAUUACGAAUA | -2.71 ± 0.2 | -1.6 ± 0.13 |
| AACUAGCAAUAUUACGACAC | -1.04 ± 0.085 | -0.404 ± 0.11 |
| AACUAGCAAUAUUACGACUG | -0.606 ± 0.1 | -0.989 ± 0.13 |
| AACUAGCAAUAUUACGAGUC | -3.83 ± 0.33 | -1.77 ± 0.19 |
| AACUAGCAAUAUUACGAGUG | -0.165 ± 0.059 | -0.29 ± 0.074 |
| AACUAGCAAUAUUACGAGUU | -3.44 ± 0.24 | -1.89 ± 0.22 |
| AACUAGCAAUAUUACGAUCA | -0.213 ± 0.099 | -0.0939 ± 0.11 |
| AACUAGCAAUAUUACGCACG | -0.871 ± 0.098 | -0.361 ± 0.12 |
| AACUAGCAAUAUUACGCAUA | -1.64 ± 0.15 | -1.1 ± 0.14 |
| AACUAGCAAUAUUACGCGAC | -2.49 ± 0.27 |  |
| AACUAGCAAUAUUACGCUAG | -4.12 ± 0.23 | -2.81 ± 0.22 |
| AACUAGCAAUAUUACGCUCU | -0.509 ± 0.12 | 0.627 ± 0.11 |
| AACUAGCAAUAUUACGCUGC | -2.59 ± 0.14 | -2.29 ± 0.18 |
| AACUAGCAAUAUUACGGAAU | -2.42 ± 0.1 | -1.83 ± 0.14 |
| AACUAGCAAUAUUACGGACC | -0.676 ± 0.071 | -0.0449 ± 0.11 |
| AACUAGCAAUAUUACGGCGA | -0.842 ± 0.1 | -0.155 ± 0.13 |
| AACUAGCAAUAUUACGGCUC | -0.662 ± 0.1 | -0.155 ± 0.11 |
| AACUAGCAAUAUUACGGGGA | -1.3 ± 0.12 | -0.982 ± 0.13 |
| AACUAGCAAUAUUACGGGUC | -1.88 ± 0.24 | -1.78 ± 0.22 |
| AACUAGCAAUAUUACGUCAC | -2.87 ± 0.18 |  |
